Test results as given in patent publication US20160136234A1.

Experiments:
Test in all cases: cell-based or functional assay
TAK1 (h) (human) = target: T1, TAK1 (h) (human) (UniProt O43318)
T1 sequence (looked up): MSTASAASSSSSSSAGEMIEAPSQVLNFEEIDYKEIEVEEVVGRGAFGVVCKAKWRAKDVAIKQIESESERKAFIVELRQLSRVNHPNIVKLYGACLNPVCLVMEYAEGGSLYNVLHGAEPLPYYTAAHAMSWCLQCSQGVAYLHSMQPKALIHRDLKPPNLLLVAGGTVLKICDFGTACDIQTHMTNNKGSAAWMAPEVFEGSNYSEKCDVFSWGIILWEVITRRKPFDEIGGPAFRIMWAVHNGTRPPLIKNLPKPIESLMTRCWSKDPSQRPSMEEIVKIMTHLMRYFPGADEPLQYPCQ

Pim-2 (h) (human) = Pim-2 (h) (human) (UniProt Q9P1W9)
NLK (h) (human) = target: T2, NLK (h) (human) (UniProt Q9UBE8)
T2 sequence (looked up): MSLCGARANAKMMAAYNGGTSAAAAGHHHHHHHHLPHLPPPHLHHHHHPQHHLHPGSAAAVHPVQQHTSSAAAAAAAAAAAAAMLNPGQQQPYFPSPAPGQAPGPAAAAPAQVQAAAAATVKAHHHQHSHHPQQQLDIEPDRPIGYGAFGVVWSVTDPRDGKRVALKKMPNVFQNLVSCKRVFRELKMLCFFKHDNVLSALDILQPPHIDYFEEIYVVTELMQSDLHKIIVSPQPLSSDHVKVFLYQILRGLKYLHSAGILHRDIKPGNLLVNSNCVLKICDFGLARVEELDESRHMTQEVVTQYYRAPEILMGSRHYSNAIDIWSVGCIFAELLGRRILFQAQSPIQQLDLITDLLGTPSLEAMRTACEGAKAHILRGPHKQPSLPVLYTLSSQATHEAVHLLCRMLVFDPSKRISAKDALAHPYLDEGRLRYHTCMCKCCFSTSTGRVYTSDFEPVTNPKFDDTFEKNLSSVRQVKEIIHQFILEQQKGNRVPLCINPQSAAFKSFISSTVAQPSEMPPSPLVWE

EphB4 (h) (human) = EphB4 (h) (human) (UniProt P54760)
PKBα (h) (human) = PKBα (h) (human) (UniProt P31749)
NEK7 (h) (human) = NEK7 (h) (human) (UniProt Q8TDX7)
Flt1 (h) (human) = target: T3, Flt1 (h) (human) (UniProt P17948)
T3 sequence (looked up): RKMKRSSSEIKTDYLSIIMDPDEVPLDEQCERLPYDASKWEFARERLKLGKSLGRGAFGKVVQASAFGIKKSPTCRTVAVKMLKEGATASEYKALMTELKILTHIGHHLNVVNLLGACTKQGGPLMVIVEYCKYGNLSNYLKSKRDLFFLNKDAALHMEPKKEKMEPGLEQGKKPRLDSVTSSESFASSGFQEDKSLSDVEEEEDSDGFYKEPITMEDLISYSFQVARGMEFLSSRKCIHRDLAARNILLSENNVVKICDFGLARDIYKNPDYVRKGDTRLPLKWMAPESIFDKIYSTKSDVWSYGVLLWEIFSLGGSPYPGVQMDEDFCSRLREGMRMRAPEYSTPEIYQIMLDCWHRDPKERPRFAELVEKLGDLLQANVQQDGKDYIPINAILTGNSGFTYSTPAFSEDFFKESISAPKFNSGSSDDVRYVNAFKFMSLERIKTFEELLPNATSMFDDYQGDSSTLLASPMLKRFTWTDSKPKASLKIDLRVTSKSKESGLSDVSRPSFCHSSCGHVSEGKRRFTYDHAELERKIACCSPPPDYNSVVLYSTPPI

LOK (h) (human) = LOK (h) (human) (UniProt O94804)
Ret(V804M) (h) (human) = target: T4, Ret(V804M) (h) (human) (UniProt P07949)
T4 sequence (looked up): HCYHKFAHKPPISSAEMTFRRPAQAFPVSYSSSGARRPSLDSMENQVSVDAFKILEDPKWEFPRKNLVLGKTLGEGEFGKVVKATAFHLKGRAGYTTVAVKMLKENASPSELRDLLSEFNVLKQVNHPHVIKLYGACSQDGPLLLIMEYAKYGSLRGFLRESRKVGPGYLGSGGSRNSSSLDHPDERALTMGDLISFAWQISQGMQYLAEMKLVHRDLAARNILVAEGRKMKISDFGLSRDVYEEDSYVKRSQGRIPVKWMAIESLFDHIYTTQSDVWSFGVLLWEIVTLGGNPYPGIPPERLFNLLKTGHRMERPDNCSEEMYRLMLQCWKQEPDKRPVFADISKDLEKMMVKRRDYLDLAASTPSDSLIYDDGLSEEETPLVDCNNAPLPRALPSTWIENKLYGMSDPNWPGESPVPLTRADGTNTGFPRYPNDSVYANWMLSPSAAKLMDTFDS

PKCε (h) (human) = PKCε (h) (human) (UniProt Q02156)
mTOR (h) (human) = mTOR (h) (human) (UniProt P42345)
PKCα (h) (human) = PKCα (h) (human) (UniProt P17252)
CSK (h) (human) = CSK (h) (human) (UniProt P41240)

PKBα (h) (human), sequence (P31749 whole entry): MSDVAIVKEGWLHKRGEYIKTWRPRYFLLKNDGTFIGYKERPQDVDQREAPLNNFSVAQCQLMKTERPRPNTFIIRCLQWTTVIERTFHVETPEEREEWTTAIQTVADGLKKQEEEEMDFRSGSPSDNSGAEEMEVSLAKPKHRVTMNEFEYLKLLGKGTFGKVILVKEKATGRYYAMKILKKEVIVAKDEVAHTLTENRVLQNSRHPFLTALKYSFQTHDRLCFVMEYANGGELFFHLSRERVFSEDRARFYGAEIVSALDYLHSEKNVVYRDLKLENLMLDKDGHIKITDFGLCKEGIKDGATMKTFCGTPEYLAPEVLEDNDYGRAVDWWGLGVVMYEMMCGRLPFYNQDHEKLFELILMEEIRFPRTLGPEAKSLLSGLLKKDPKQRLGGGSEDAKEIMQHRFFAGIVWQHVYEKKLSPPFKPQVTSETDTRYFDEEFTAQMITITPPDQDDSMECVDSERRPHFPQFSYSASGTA
EphB4 (h) (human), sequence (P54760 561-987 limits assumed): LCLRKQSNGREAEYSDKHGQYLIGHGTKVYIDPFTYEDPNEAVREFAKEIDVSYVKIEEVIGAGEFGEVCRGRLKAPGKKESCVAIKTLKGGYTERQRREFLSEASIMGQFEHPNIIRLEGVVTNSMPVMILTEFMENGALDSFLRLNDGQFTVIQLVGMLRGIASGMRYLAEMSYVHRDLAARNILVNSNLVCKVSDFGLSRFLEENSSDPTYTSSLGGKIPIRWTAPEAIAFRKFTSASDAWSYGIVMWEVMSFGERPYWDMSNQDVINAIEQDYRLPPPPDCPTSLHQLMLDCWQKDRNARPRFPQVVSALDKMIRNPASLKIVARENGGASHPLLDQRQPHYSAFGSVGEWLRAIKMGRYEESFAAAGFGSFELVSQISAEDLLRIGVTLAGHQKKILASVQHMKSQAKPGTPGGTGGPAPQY
mTOR (h) (human), sequence (P42345 1362-2549 limits assumed): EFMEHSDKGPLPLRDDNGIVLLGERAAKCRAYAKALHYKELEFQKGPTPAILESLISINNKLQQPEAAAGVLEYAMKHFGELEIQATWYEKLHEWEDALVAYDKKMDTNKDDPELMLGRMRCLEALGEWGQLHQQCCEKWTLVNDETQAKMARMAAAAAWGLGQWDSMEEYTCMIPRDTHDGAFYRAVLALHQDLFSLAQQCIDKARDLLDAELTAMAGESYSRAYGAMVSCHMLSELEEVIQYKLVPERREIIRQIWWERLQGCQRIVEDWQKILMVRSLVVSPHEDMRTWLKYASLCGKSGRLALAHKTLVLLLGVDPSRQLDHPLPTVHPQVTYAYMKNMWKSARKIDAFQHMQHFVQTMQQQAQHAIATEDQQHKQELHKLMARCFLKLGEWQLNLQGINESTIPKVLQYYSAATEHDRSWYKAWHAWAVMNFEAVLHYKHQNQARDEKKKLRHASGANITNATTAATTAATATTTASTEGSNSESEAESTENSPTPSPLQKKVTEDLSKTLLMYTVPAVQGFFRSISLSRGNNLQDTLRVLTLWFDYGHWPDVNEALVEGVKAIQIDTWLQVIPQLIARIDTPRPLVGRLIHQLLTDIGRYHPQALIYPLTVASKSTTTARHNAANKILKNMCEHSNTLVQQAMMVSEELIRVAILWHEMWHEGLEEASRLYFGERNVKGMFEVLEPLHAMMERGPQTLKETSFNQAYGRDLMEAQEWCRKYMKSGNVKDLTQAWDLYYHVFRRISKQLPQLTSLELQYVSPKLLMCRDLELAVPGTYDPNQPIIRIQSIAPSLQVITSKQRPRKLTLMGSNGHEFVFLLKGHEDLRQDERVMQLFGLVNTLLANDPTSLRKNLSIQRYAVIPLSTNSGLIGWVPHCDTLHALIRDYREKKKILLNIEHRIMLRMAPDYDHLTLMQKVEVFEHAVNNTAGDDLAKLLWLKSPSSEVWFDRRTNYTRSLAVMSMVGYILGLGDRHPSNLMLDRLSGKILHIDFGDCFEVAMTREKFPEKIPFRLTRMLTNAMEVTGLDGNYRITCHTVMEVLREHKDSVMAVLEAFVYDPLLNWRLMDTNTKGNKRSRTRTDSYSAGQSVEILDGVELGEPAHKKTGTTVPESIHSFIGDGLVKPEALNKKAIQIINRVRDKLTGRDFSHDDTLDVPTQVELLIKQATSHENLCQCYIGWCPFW

MMI-0300 (peptide) was tested, and the % activity at 100 µM (TAK1 (h) (human)) was 122%, the % activity at 100 µM (Pim-2 (h) (human)) was 76% and the % activity at 100 µM (NLK (h) (human)) was 87%. The % activity at 100 µM (EphB4 (h) (human)) was 44%, the % activity at 100 µM (PKBα (h) (human)) was 57% and the % activity at 100 µM (NEK7 (h) (human)) was 84%. The % activity at 100 µM (Flt1 (h) (human)) was 69%, the % activity at 100 µM (LOK (h) (human)) was 37% and the % activity at 100 µM (Ret(V804M) (h) (human)) was 95%. It also gave a % activity at 100 µM (PKCε (h) (human)) of 79%, a % activity at 100 µM (mTOR (h) (human)) of 91% and a % activity at 100 µM (PKCα (h) (human)) of 89%. The % activity at 100 µM (CSK (h) (human)) was 49%.
